Source: the Human Domainome abundance scans (Beltran et al. 2025)

B1: E3 ubiquitin-protein ligase NEDD4, residues 836 to 881; numbered along this chain, P46934 (parent)
chain: EIEQGFLPKGWEVRHAPNGRPFFIDHNTKTTTWEDPRLKIPAHLRG

Variants of: B1
Assay: abundance fitness (aPCA) (normalised: wild type 0, dead -1); higher = more abundant; growth selection in yeast, the domain comes from the species named
Conditions: Homo sapiens

Abundance fitness of substitutions, site by site:
K29: H -0.224, V -0.82, C -0.323, M -0.303, S -0.231, T -0.577, N -0.089, Q -0.063, Y -1, G -0.002, E -0.324, I -0.954, A -0.237, L -0.343, P -0.889, F -0.446
E34: Y -0.272, Q -0.345, V -0.169, H -0.172, K -0.369, R -0.307, L -0.155, P -1.08, T -0.37, D -0.312, A -0.182, M -0.054, C -0.268, G -0.51, W -0.306, S -0.163
F22: A -0.688, K -0.702, T -0.536, L -0.151, Q -0.239, S -0.797, N -0.774, G -0.712, R -0.745, E -0.393, I -0.168, H -0.844, C -0.122, V -0.211, D -0.35
P21: I 0.033, S -0.233, R -0.109, W -0.402, L -0.131, T -0.451, N -0.487, E -0.149, F -0.601, K 0.027, M -0.218, Y 0.055, Q -0.058, V -0.149
H26: F -0.209, T -0.357, V -0.423, N -0.449, D -0.515, Q -0.381, M -0.262, S -0.47, Y -0.749, W -0.327, L -0.507, I -0.078, E -0.591, C -0.388, A -0.69, K -0.342, R -0.45, G -0.501
T30: Y -0.818, A -0.368, S -0.136, R -0.2, L -0.297, H 0.276, E -0.206, M -0.206, F -0.466, G -0.595, D -0.347, P -0.961, Q -0.216, K -0.133, I -0.056, V -0.202, W -1.38, N -0.566
P41: I 0.029, K -0.08, G -0.423, H 0.051, E -0.167, A -0.078, F -0.57, D -0.16
T32: K -0.775, L -0.85, Q 0.038, C -0.538, E -0.655, Y -0.564, G -0.619, V -0.456, I -0.471, R -0.648, A -0.779, H -0.033, S -0.115, D -1.05, M -0.705, W -0.807, F -0.574
R37: W -0.812, C -0.611, K -0.758, G -0.586, Q -0.665, I -0.75, L -0.399, A -0.567, S -0.472, H -0.268, Y -0.784, M -0.364, T -0.256, V -0.597, F -0.672, E -0.752, P -0.867
N27: W -0.827, H -0.543, K -0.168, I -0.105, T -0.091, C -0.405, F -0.189, G -0.382, P -0.935, Y -0.593, S -0.302, A -0.295, D -0.12, M -0.409, Q -0.364, L -0.417
I40: F -0.239, M -0.026, C -0.343, N -0.154, L -0.042, E -0.233, V -0.007, G 0.028, T 0.04, Y -0.27, W -0.055, A 0.002, D -0.193, K 0.095, Q 0.085, P -0.335, R -0.018, H -0.17, S 0.009
P36: N -0.818, H -0.71, F -1.04, K -0.846, M -1.06, V -0.96, Q -1.03, L -1.01, W -0.954, C -0.958, E -0.283, G -0.927, D -0.893, S -1.09, Y -0.713, A -0.629
D35: I -0.895, A -0.216, E -0.795, K -0.814, P -0.582, L -0.623, Y -0.906, R -0.554, H -0.418, S -0.691, V -0.762, G -0.593, W -0.849, T -0.84, N -0.979, M -0.734
L38: V -0.051, A -0.103, I -0.043, R -0.012, H -0.292, N -0.166, S -0.019, Y -0.435, W -0.105, D 0.036, G -0.018, T 0.033, P -0.072, Q -0.091, K -0.105, E -0.093, M -0.066
D25: G -0.836, M -1.15, F -1.04, S -0.84, Q -0.951, T -0.94, A -0.848, N -0.261, C -0.447, R -0.682, H -0.394, W -0.86, I -0.792, E -0.351, V -0.981, Y -0.768, L -0.922
I24: R -0.609, E -0.849, N -0.715, L 0.003, S -1.09, C -0.402, Y 0.137, T -0.701, H -0.523, G -0.98, F -0.522, A -0.818, Q -0.947, P -0.929, W -0.356
T31: Y -0.511, Q -0.158, C -0.064, G -0.398, S 0.006, K -0.572, E -0.44, W -0.311, L -0.356, A -0.004, N -0.727, M -0.234, D -0.576, F -0.42, V -0.185, P -0.901, H -0.578
W33: C -0.653, S -0.307, Q -0.337, K -0.462, G -0.372, V -0.243, L -0.433, F -0.142, E -0.221, N -0.431, D -0.484, R -0.506, A -0.365
K39: G -0.065, T -0.023, F -0.421, C 0.32, M -0.101, L -0.144, S -0.098, R 0.003, E 0.062, A -0.085, D -0.241, I -0.297, Q -0.372, H -0.355, W -0.298, Y -0.319, V -0.201
F23: N -0.79, C -0.966, G -0.566, S -0.856, I -0.896, A -0.416, L -0.633, D -0.679, H -0.656, W -0.147, Q -0.824, V -0.651, Y -0.27, K -0.47, M -0.751, T -0.883
T28: G -0.187, I -0.901, P -0.823, N 0.035, S -0.201, D -0.327, M -0.487, H -0.338, Y -0.548, A -0.383, K -0.251, L -0.341, E -0.218, F -0.776, W -0.971, V -0.78
